PMC3587138 (Nature, 2011)

B1: recombinant 6×His-tagged Hub1 (natural protein, S. cerevisiae)
chain: MIEVVVNDRLGKKVRVKCLAEDSVGDFKKVLSLQIGTQPNKIVLQKGGSVLKDHISLEDYEVHDQTNLELYYL

What was measured:
[1] = biological target: T1, full-length Snu66 (recombinant) (S. cerevisiae, UniProt Q12420 1-587); assay: ITC
T1 sequence (looked up): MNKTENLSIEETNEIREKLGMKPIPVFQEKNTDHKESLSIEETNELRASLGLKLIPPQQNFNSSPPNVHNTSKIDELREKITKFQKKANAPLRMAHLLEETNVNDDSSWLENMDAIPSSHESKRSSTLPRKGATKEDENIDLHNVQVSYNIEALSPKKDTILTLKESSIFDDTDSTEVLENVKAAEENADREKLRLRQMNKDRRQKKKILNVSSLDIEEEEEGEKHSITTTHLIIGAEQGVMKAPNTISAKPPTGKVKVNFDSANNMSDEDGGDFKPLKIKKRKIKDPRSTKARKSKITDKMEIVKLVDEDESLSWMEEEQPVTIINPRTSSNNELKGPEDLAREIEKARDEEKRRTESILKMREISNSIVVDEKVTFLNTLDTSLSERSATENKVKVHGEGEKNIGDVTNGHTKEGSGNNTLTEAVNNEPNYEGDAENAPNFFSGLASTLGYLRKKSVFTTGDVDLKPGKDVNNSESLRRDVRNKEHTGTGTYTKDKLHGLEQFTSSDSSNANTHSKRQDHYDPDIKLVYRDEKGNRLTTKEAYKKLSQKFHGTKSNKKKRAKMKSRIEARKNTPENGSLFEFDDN

[2] = biological target: B1; assay: NMR titration

## B1
[1]
  Kd: 590 ± 70 nM

B2: N-terminal 65-amino-acid fragment of Snu66 (domain or fragment, S. cerevisiae, UniProt Q12420 1-65, looked up)
chain: MNKTENLSIEETNEIREKLGMKPIPVFQEKNTDHKESLSIEETNELRASLGLKLIPPQQNFNSSP
[2]
  binding result: binds
